Values quoted from earlier work, collected in patent publication US20230212279A1, “TREATMENT AND PREVENTION OF DISEASE CAUSED BY TYPE IV COLLAGEN DYSFUNCTION” (Singapore Health Services PTE, LTD., priority 2020, published 2023).

Target: T1, IL-11Rα (Homo sapiens, UniProt Q14626)
T1 sequence (Q14626 23-422): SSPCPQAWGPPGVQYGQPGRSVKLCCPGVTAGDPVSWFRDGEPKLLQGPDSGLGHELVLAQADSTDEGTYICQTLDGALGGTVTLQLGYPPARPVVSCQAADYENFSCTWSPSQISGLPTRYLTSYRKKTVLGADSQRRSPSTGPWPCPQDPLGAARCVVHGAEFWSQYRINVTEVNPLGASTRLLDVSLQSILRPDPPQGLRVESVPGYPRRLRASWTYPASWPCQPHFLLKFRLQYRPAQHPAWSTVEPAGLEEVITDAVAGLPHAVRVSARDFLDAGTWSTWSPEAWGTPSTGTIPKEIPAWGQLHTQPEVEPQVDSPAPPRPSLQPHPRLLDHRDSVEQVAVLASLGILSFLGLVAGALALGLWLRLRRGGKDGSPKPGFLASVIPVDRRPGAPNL
Conditions: IL-11 binding to IL-11Rα alone, low affinity; cited from earlier work

B1: IL-11: pleiotropic cytokine, member of the IL-6 family of cytokines (protein)
chain: PGPPAGSPRVSSDPRADLDSAVLLTRSLLADTRQLAAQMRDKFPADGDHSLDSLPTLAMSAGTLGSLQLPGVLTRLRVDLMSYLRHVQWLRRAGGPSLKTLEPELGALQARLERLLRRLQLLMSRLALPQAAPDQPVIPLGPPASAWGSIRAAHAILGGLHLTLDWAVRGLLLLKTRL
Kd: ~22 nM
